In patent US20040214255A1 (MYRIAD GENETICS, published 2004):

B2: PP5, amino acids 1-150 (enzyme, human, UniProt P53041 1-150, looked up)
chain: MAMAEGERTECAEPPRDEPPADGALKRAEELKTQANDYFKAKDYENAIKFYSQAIELNPSNAIYYGNRSLAYLRTECYGYALGDATRAIELDKKYIKGYYRRAASNMALGKFRAALRDYETVVKVKPHDKDAKMKYQECNKIVKQKAFER
notes: range 1-150; also called Protein phosphatase 5

Tests used:
Experiment in all cases: yeast two-hybrid
[1] = molecular target: T1, β-Spectrin, amino acids 1592-2096 (human, UniProt Q01082 1592-2096)
T1 construct: range 1592-2096; also called non-erythrocytic beta-spectrin; beta spectrin
T1 sequence (Q01082 1592-2096): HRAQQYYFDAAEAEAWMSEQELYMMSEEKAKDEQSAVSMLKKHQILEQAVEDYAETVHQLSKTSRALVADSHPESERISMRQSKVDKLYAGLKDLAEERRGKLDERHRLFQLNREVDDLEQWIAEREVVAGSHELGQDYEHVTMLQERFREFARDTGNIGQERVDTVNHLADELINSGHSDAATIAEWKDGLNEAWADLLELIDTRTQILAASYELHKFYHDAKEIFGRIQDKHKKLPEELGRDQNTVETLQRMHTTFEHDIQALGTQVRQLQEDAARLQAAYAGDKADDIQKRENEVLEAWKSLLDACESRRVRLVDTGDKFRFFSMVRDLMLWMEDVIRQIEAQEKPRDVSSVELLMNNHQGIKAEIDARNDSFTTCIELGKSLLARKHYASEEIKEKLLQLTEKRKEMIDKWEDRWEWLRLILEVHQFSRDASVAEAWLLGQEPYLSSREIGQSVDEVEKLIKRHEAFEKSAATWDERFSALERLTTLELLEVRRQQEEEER
From the text: (§1) The new construct was selected directly in the yeast strain PNY200 for its ability to drive tryptophane synthesis (genotype of this strain: […] trp1-901 leu2-3,112 ura3-52 his3-200 ade2 gal4Δ gal80). In these yeast cells, the bait was produced as a C-terminal fusion protein with the DNA binding domain of the transcription factor Ga14 (amino acids 1 to 147). Prey libraries were transformed into the yeast strain BK100 (genotype of this strain: MATα trp1-901 leu2-3,112 ura3-52 his3-200 gal4Δ gal80 LYS2::GAL-HIS3 GAL2-ADE2 met2::GAL7-lacZ), and selected for the ability to drive leucine synthesis. In these yeast cells, each cDNA was expressed as a fusion protein with the transcription activation domain of the transcription factor Ga14 (amino acids 768 to 881) and a 9 amino acid hemagglutinin epitope tag. PNY200 cells (MATα mating type), expressing the bait, were then mated with BK100 cells (MATa mating type), expressing prey proteins from a prey library. The resulting diploid yeast cells expressing proteins interacting with the bait protein were selected for the ability to synthesize tryptophan, leucine, histidine, and adenine. DNA was prepared from each clone, transformed by electroporation into E. coli strain KC8 (Clontech KC8 electrocompetent cells, Catalog No. C2023-1), and the cells were selected on ampicillin-containing plates in the absence of either tryptophane (selection for the bait plasmid) or leucine (selection for the library plasmid). DNA for both plasmids was prepared and sequenced by the dideoxynucleotide chain termination method. The identity of the bait cDNA insert was confirmed and the cDNA insert from the prey library plasmid was identified using the BLAST program to search against public nucleotide and protein databases. Plasmids from the prey library were then individually transformed into yeast cells together with a plasmid driving the synthesis of lamin and 5 other test proteins, respectively, fused to the Ga14 DNA binding domain. Clones that gave a positive signal in the β-galactosidase assay were considered false-positives and discarded. […] Clones that gave a positive signal in the β-galactosidase assay were considered true positives.

[2] = molecular target: T2, HSP89, amino acids 537-700 (human, UniProt P07900 537-700)
T2 construct: range 537-700
T2 sequence (P07900 537-700): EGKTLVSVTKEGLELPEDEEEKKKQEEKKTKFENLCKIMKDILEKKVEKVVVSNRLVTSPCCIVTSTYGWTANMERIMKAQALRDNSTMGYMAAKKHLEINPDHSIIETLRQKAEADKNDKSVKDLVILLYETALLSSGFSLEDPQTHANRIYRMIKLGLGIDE
From the text: as §1

PP5, amino acids 1-150 = molecular target: B2
From the text: as §1

B1: Insulin-Regulated Membrane-Spanning Aminopeptidase (IRAP), amino acids 750-1026 (enzyme, human, UniProt Q9UIQ6 750-1025, looked up)
chain: FDLINYLGNENHTAPITEALFQTDLIYNLLEKLGYMDLASRLVTRVFKLLQNQIQQQTWTDEGTPSMRELRSALLEFACTHNLGNCSTTAMKLFDDWMASNGTQSLPTDVMTTVFKVGAKTDKGWSFLLGKYISIGSEAEKNKILEALASSEDVRKLYWLMKSSLNGDNFRTQKLSFIIRTVGRHFPGHLLAWDFVKENWNKLVQKFPLGSYTIQNIVAGSTYLFSTKTHLSEVQAFFENQSEATFRLRCVQEALEVIQLNIQWMEKNLKSLTWWL
notes: range 750-1026; also called C-terminal portion of IRAP
binding result [1]: binds

B2
binding result [2]: binds

B3: Tankyrase, amino acids 603-725 (enzyme, human, UniProt O95271 603-725, looked up)
chain: HLQTCRLLLSYGSDPSIISLQGFTAAQMGNEAVQQILSESTPIRTSDVDYRLLEASKAGDLETVKQLCSSQNVNCRDLEGRHSTPLHFAAGYNRVSVVEYLLHHGADVHAKDKGGLVPLHNAC
notes: range 603-725
binding result (PP5, amino acids 1-150): binds
